Data from patent US9777044B2, “GLUT-1 as a receptor for HTLV envelopes and its uses” (CENTRE NATIONAL DE LA RECHERCHE SCIENTIFIQUE (CNRS), priority 2003, dated 2017).

How the values were obtained:
[1] = target: T1, GLUT-1 (Homo sapiens, UniProt P11166); experiment: RBD binding to cells overexpressing GLUT-1
T1 construct: factor Xa cleavage site (C); His (C); expressed in transfected cells
T1 sequence (P11166 1-492): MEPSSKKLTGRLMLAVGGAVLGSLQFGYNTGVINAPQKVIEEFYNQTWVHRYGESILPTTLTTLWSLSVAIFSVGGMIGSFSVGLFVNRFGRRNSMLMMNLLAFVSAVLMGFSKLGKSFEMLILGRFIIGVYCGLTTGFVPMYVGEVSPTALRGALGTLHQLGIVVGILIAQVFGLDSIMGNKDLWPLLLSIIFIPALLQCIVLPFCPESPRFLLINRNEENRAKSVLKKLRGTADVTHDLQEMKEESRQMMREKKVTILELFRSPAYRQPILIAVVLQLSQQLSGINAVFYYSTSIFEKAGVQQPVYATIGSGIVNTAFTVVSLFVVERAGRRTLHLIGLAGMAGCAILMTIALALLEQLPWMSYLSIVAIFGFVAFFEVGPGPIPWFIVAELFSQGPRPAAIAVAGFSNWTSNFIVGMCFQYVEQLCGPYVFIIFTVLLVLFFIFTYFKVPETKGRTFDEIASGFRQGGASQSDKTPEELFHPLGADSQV
Text: (§1) In order to directly test the ability of HTLV envelopes to bind GLUT-1, we derived a tagged GLUT-1 expression vector and overexpressed this protein in HeLa cells. […] GLUT-3 is the closest isoform to GLUT-1, and transports glucose with kinetics similar to that of GLUT-1. Thus, we derived a tagged GLUT-3 expression vector. […] To determine if GLUT-1 transfected cells were directly responsible for the observed increased in H1RBD binding, we derived fluorescent tagged GLUT-1 and GLUT-3 to uniquevocally identity GLUT-overexpressing cells in the course of our FACS analysis. […] Consequently, we tested if HTLV glycoproteins directly interact with GLUT-1 proteins. To this end, we evaluated the ability of H1RBD to immunoprecipitate GLUT-1. […] Therefore, the GLUT-1 glucose transporter is an essential component of the HTLV envelope receptor.
Expression vectors. Full length envelope expression vectors for HTLV-1 (pCEL/2[Denesvre, 1995]) and Friend ecotropic MLV (pCEL/F [Denesvre, 1995]), have been previously described. For the HTLV-2 envelope, a fragment from pHTE2 [Rosenberg, 1998] encompassing the tax, rex and env genes and the 3′ LTR was inserted in the pCSI [Battini, 1999] vector (pCSIX.H2). Full length envelope expression vectors for amphotropic MLV (pCSI.A), or devoid of its R peptide (pCSI.AΔR), and H183FEnv that contains the N-terminal 183 amino acids of the HTLV-1 receptor-binding domain in the F-MLV envelope background, as well as truncated envelope expression vectors, derived from pCSI and encoding either of the first 215 residues of HTLV-1 SU (H1RBD), the first 178 residues of HTLV2-SU (H2RBD) or the first 397 residues of the amphotropic murine leukemia virus (MLV) SU (Amp), fused to a C-terminal rabbit IgG Fc tag (rFc) or to EGFP (H2RBD-GFP). All point mutations introduced in HTLV-1 and -2 RBD constructs were generated using the quickchange site-directed mutagenesis method and mutations were verified by sequencing. Human Glut-1 and Glut-3 cDNA were amplified by PCR from the pLib HeLa cDNA library (Clontech), and inserted into pCHIX, a modified version of the pCSI vector that contains a cassette comprising a factor Xa cleavage site, two copies of the hemagglutinin (HA) tag, and a histidine tag. The resulting construct (pCHIX.hGLUT1) encodes a GLUT-1 protein with a HA-His tag at the C-terminal end. GLUT-1 and GLUT-3 were also inserted in a modified pCSI vector containing a DsRed2 C-terminal tag. Similarly, human CD147 was amplified from 293T total RNA by RT-PCR and inserted into the pCHIX backbone in frame with the HA-His tag (pCHIX.hCD147).
(§2) Binding assays. […] Binding was analyzed on a FACSCalibur (Becton Dickinson) and data analysis was performed using CellQuest (Becton Dickinson) and WinMDI (Scripps) softwares.

[2] = test system: PiT2; experiment: RBD binding to cells overexpressing PiT2
[3] = target: T2, GLUT-3 (Homo sapiens, UniProt P11169); experiment: RBD binding to cells overexpressing GLUT-3
T2 construct: factor Xa cleavage site + 2x HA + His (pCHIX cassette) (C); expressed in transfected cells; host or cells: 293T cells
T2 sequence (P11169 1-496): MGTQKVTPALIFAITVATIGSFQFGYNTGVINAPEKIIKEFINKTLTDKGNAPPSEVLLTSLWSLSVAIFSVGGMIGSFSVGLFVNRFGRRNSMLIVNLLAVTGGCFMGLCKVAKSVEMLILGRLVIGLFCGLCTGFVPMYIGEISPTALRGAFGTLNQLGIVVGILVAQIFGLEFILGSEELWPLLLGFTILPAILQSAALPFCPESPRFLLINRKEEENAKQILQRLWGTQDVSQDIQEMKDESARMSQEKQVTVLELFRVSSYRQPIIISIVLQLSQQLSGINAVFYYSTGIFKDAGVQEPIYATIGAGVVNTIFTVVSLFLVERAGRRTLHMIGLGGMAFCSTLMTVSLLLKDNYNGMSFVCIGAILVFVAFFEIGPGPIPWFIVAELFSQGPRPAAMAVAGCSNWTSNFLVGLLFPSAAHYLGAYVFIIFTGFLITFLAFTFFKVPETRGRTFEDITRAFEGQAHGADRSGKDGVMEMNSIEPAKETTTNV
Text: as §1
Expression vectors. Full length envelope expression vectors for HTLV-1 (pCEL/2[Denesvre, 1995]) and Friend ecotropic MLV (pCEL/F [Denesvre, 1995]), have been previously described. For the HTLV-2 envelope, a fragment from pHTE2 [Rosenberg, 1998] encompassing the tax, rex and env genes and the 3′ LTR was inserted in the pCSI [Battini, 1999] vector (pCSIX.H2). […]
as §2

[4] = test system: 293T cells and Jurkat T cells; experiment: RBD binding after overnight culture in the absence of glucose; set-up: species or system human; conditions: both 293T cells and Jurkat T cells
Procedure: Cell culture. 293T human embryonic kidney and HeLa cervical carcinoma cells were grown in Dulbecco's modified Eagle medium (DMEM) with high glucose (4.5 g/l) and Jurkat T-cells were grown in RPMI supplemented with 10% fetal bovine serum (FBS) at 37° C. in a 5% CO2-95% air atmosphere. For glucose starvation experiments, cells were grown in either glucose-free DMEM (Life Technologies) or glucose-free RPMI—(Dutscher) with 10% dialyzed FBS (Life Technologies) and glucose (1 g/l) was supplemented when indicated.
Binding assays. Binding assays were carried out as previously described [Manel, 2003]. Briefly, 5×10^5 cells (293T, HeLa, Jurkat or freshly isolated human erythrocytes) were incubated with 500 μl of H1RBD, H2RBD or ARBD supernatants for 30 min at 37° C., washed with PBA (1% BSA, 0.1% sodium azide in PBS), and incubated with a sheep anti-rabbit IgG antibody conjugated to fluorescein isothiocyanate (Sigma). […] Binding was analyzed on a FACSCalibur (Becton Dickinson) and data analysis was performed using CellQuest (Becton Dickinson) and WinMDI (Scripps) softwares.

[5] = test system: murine erythrocytes; experiment: RBD binding on murine erythrocytes

B1: H1RBD: first 215 residues of HTLV-1 SU fused to a C-terminal rabbit IgG Fc tag (rFc) (protein)
chain: DYSPSCCTLTIGVSSYHSKPCNPAQPVCSWTLDLLALSADQALQPPCPNLVSYSSYHATYSLYLFPHWIKKPNRNGGGYYSASYSDPCSLKCPYLGCQSWTCPYTGAVSSPYWKFQQDVNFTQEVSRLNINLHFSKCGFPFSLLVDAPGYDPIWFLNTEPSQLPPTAPPLLPHSNLDHILEPSIPWKSKLLTLVQVDVPRDCGCKPCICTVPEVSSVFIFPPKPKDVLTITLTPKVTCVVVDISKDDPEVQFSWFVDDVEVHTAQTQPREEQFNSTFRSVSELPIMHQDWLNGKEFKCRVNSAAFPAPIEKTISKTKGRPKAPQVYTIPPPKEQMAKDKVSLTCMITDFFPEDITVEWQWNGQPAENYKNTQPIMDTDGSYFVYSKLNVQKSNWEAGNTFTCSVLHEGLHNHHTEKSLSHSPGK
H1RBD binding to cells overexpressing GLUT-1-DsRed2 ([1]; fluorescent tagged GLUT-1, FACS analysis): significant increase
binding upon GLUT-1 overexpression ([1]; tagged GLUT-1 expression vector, HeLa cells / 293T cells (FIG. 4a legend)): dramatically increased
binding upon overexpression of PiT2 [2]: remained at background levels
binding upon GLUT-3 overexpression ([3]; 293T cells, tagged GLUT-3): did not induce any increase
H1RBD binding to cells overexpressing GLUT-3-DsRed2 ([3]; fluorescent tagged GLUT-3, FACS analysis): no effect
increase of binding after overnight culture in the absence of glucose [4]: 2 fold
binding on murine erythrocytes [5]: no significant H1RBD binding could be detected
